Assay results as given in paper doi:10.1101/2020.06.24.169607 (bioRxiv, 2020).

Molecular target: the molecule itself
Assay: differential scanning calorimetry

B1: PSD95-PDZ3 wild type (third PDZ domain of postsynaptic density-95 protein) (domain or fragment)
chain: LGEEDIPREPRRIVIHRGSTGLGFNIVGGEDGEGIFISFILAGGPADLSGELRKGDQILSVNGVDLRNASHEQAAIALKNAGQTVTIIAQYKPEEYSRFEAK
stoichiometry N: 6
